Reference: patent US11708423B2, “Chimeric engulfment receptor molecules and methods of use” (CERO THERAPEUTICS, INC., priority 2017, dated 2023)

system: H1975 lung adenocarcinoma cells; test: LDH assay, H1975 cells, 48 hours co-culture with 1 μM Osimeritinib; assay type: cell-based; details: E:T 1:1, 48 hours, CD4+ T cells
Text: CER30 comprises a Tim4 binding domain, Tim4 transmembrane domain, and an engulfment signaling domain comprising a primary engulfment signaling domain comprising a TRAF2 signaling domain. CER30 has a polypeptide sequence as set forth in SEQ ID NO:96. CER110 has a polypeptide sequence of SEQ ID NO:125 and comprises a Tim4 binding domain, Tim4 transmembrane domain, and an engulfment signaling domain comprising a primary engulfment signaling domain comprising a TRAF6 signaling domain and a secondary engulfment signaling domain comprising a DAP12 signaling domain. CER112 has a polypeptide sequence of SEQ ID NO:128 and comprises a Tim4 binding domain, Tim4 transmembrane domain, and an engulfment signaling domain comprising a primary engulfment signaling domain comprising a TRAF6 signaling domain and a secondary engulfment signaling domain comprising a NFAM1 signaling domain. CER127 has a polypeptide sequence of SEQ ID NO:175 and comprises a Tim4 binding domain, Tim4 transmembrane domain, and an engulfment signaling domain comprising a primary engulfment signaling domain comprising a TRAF2 signaling domain and a secondary engulfment signaling domain comprising a TLR2 signaling domain. H1975 cells are more resistant to EGFR inhibitors, so Osimeritinib was used at slightly higher concentration. H1975 lung adenocarcinoma cells harboring an EGFR mutation were co-cultured with CER-expressing or mock-transduced (vector only) CD4+ T cells with 1 μM of Osimeritinib. After 48 hours of co-culture at a 1:1 effector:target cell ratio, T cells were washed away, and the number of viable H1975 cells was quantified using a calorimetric LDH assay (FIG. 57). Cell viability experiments were performed in triplicate and presented as % of control.

| Molecule | killing of H1975 cells (LDH) |
| --- | --- |
| CER124: Tim4 binding and transmembrane domains, TLR2 primary and NFAM1 secondary signaling domains; SEQ ID NO:151 (protein, CER124 protein) MSKGLLLLWLVTELWWLYLTPAASEDTIIGFLGQPVTLPCHYLSWSQSRNSMCWGKGSCPNSKCNAELLRTDGTRIISRKSTKYTLLGKVQFGEVSLTISNTNRGDSGVYCCRIEVPGWFNDVKKNVRLELRRATTTKKPTTTTRPTTTPYVTTTTPELLPTTVMTTSVLPTTTPPQTLATTAFSTAVTTCPSTTPGSFSQETTKGSAFTTESETLPASNHSQRSMMTISTDIAVLRPTGSNPGILPSTSQLTTQKTTLTTSESLQKTTKSHQINSRQTILIIACCVGFVLMVLLFLAFLHRFHGLWYMKMMWAWLQAKRKPRKAPSRNICYDAFVSYSERDAYWVENLMVQELENFNPPFKLCLHKRDFIPGKWIIDNIIDSIEKSHKTVFVLSENFVKSEWCKYELDFSHFRLFDENNDAAILILLEPIEKKAIPQRFCKLRKIMNTKTYLEWPMDEAQREGFWVNLRAAIKSLWNKKRMRGPGKDPTRKCPDPRSASSPKQHPSESVYTALQRRETEVYACIENEDGSSPTAKQSPLSQERPHRFEDDGELNLVYENL | synergistic killing of H1975 lung adenocarcinoma cells upon EGFR inhibition |
| CER127: Tim4 binding and transmembrane domains, TRAF2 primary and TLR2 secondary signaling domains; SEQ ID NO:175 (protein, CER127 protein) MSKGLLLLWLVTELWWLYLTPAASEDTIIGFLGQPVTLPCHYLSWSQSRNSMCWGKGSCPNSKCNAELLRTDGTRIISRKSTKYTLLGKVQFGEVSLTISNTNRGDSGVYCCRIEVPGWFNDVKKNVRLELRRATTTKKPTTTTRPTTTPYVTTTTPELLPTTVMTTSVLPTTTPPQTLATTAFSTAVTTCPSTTPGSFSQETTKGSAFTTESETLPASNHSQRSMMTISTDIAVLRPTGSNPGILPSTSQLTTQKTTLTTSESLQKTTKSHQINSRQTILIIACCVGFVLMVLLFLAFLMAAASVTPPGSLELLQPGFSKTLLGTKLEAKYLCSACRNVLRRPFQAQCGHRYCSFCLASILSSGPQNCAACVHEGIYEEGISILESSSAFPDNAARREVESLPAVCPSDGCTWKGTLKEYESCHEGRCPLMLTECPACKGLVRLGEKERHLEHECPERSLSCRHCRAPCCGADVKAHHEVCPKFPLTCDGCGKKKIPREKFQDHVKTCGKCRVPCRFHAIGCLETVEGEKQQEHEVQWLREHLAMLLSSVLEAKPLLGDQSHAGSELLQRCESLEKKTATFENIVCVLNREVERVAMTAEACHRFHGLWYMKMMWAWLQAKRKPRKAPSRNICYDAFVSYSERDAYWVENLMVQELENFNPPFKLCLHKRDFIPGKWIIDNIIDSIEKSHKTVFVLSENFVKSEWCKYELDFSHFRLFDENNDAAILILLEPIEKKAIPQRFCKLRKIMNTKTYLEWPMDEAQREGFWVNLRAAIKS | synergistic killing of H1975 lung adenocarcinoma cells upon EGFR inhibition |
| CER129: Tim4 binding and transmembrane domains, TLR8 primary and TRAF2 secondary signaling domains; SEQ ID NO:177 (protein, CER129 protein) MSKGLLLLWLVTELWWLYLTPAASEDTIIGFLGQPVTLPCHYLSWSQSRNSMCWGKGSCPNSKCNAELLRTDGTRIISRKSTKYTLLGKVQFGEVSLTISNTNRGDSGVYCCRIEVPGWFNDVKKNVRLELRRATTTKKPTTTTRPTTTPYVTTTTPELLPTTVMTTSVLPTTTPPQTLATTAFSTAVTTCPSTTPGSFSQETTKGSAFTTESETLPASNHSQRSMMTISTDIAVLRPTGSNPGILPSTSQLTTQKTTLTTSESLQKTTKSHQINSRQTILIIACCVGFVLMVLLFLAFLHHLFYWDVWFIYNVCLAKVKGYRSLSTSQTFYDAYISYDTKDASVTDWVINELRYHLEESRDKNVLLCLEERDWDPGLAIIDNLMQSINQSKKTVFVLTKKYAKSWNFKTAFYLALQRLMDENMDVIIFILLEPVLQHSQYLRLRQRICKSSILQWPDNPKAEGLFWQTLRNVVLTENDSRYNNMYVDSIKQYMAAASVTPPGSLELLQPGFSKTLLGTKLEAKYLCSACRNVLRRPFQAQCGHRYCSFCLASILSSGPQNCAACVHEGIYEEGISILESSSAFPDNAARREVESLPAVCPSDGCTWKGTLKEYESCHEGRCPLMLTECPACKGLVRLGEKERHLEHECPERSLSCRHCRAPCCGADVKAHHEVCPKFPLTCDGCGKKKIPREKFQDHVKTCGKCRVPCRFHAIGCLETVEGEKQQEHEVQWLREHLAMLLSSVLEAKPLLGDQSHAGSELLQRCESLEKKTATFENIVCVLNREVERVAMTAEAC | synergistic killing of H1975 lung adenocarcinoma cells upon EGFR inhibition |
| CER27: Tim4 binding and transmembrane domains, TLR2 signaling domain; SEQ ID NO:93 (protein, CER27 chimeric engulfment receptor) MSKGLLLLWLVTELWWLYLTPAASEDTIIGFLGQPVTLPCHYLSWSQSRNSMCWGKGSCPNSKCNAELLRTDGTRIISRKSTKYTLLGKVQFGEVSLTISNTNRGDSGVYCCRIEVPGWFNDVKKNVRLELRRATTTKKPTTTTRPTTTPYVTTTTPELLPTTVMTTSVLPTTTPPQTLATTAFSTAVTTCPSTTPGSFSQETTKGSAFTTESETLPASNHSQRSMMTISTDIAVLRPTGSNPGILPSTSQLTTQKTTLTTSESLQKTTKSHQINSRQTILIIACCVGFVLMVLLFLAFLHRFHGLWYMKMMWAWLQAKRKPRKAPSRNICYDAFVSYSERDAYWVENLMVQELENFNPPFKLCLHKRDFIPGKWIIDNIIDSIEKSHKTVFVLSENFVKSEWCKYELDFSHFRLFDENNDAAILILLEPIEKKAIPQRFCKLRKIMNTKTYLEWPMDEAQREGFWVNLRAAIKS | synergistic killing of H1975 lung adenocarcinoma cells upon EGFR inhibition |
| CER30: Tim4 binding and transmembrane domains, Traf2 signaling domain; SEQ ID NO:96 (protein, CER30 chimeric engulfment receptor) MSKGLLLLWLVTELWWLYLTPAASEDTIIGFLGQPVTLPCHYLSWSQSRNSMCWGKGSCPNSKCNAELLRTDGTRIISRKSTKYTLLGKVQFGEVSLTISNTNRGDSGVYCCRIEVPGWFNDVKKNVRLELRRATTTKKPTTTTRPTTTPYVTTTTPELLPTTVMTTSVLPTTTPPQTLATTAFSTAVTTCPSTTPGSFSQETTKGSAFTTESETLPASNHSQRSMMTISTDIAVLRPTGSNPGILPSTSQLTTQKTTLTTSESLQKTTKSHQINSRQTILIIACCVGFVLMVLLFLAFLMAAASVTPPGSLELLQPGFSKTLLGTKLEAKYLCSACRNVLRRPFQAQCGHRYCSFCLASILSSGPQNCAACVHEGIYEEGISILESSSAFPDNAARREVESLPAVCPSDGCTWKGTLKEYESCHEGRCPLMLTECPACKGLVRLGEKERHLEHECPERSLSCRHCRAPCCGADVKAHHEVCPKFPLTCDGCGKKKIPREKFQDHVKTCGKCRVPCRFHAIGCLETVEGEKQQEHEVQWLREHLAMLLSSVLEAKPLLGDQSHAGSELLQRCESLEKKTATFENIVCVLNREVERVAMTAEAC | synergistic killing of H1975 lung adenocarcinoma cells upon EGFR inhibition |
| CER108: Tim4 binding and transmembrane domains, DAP12 primary and TLR8 secondary signaling domains; SEQ ID NO:137 (protein, CER108 protein) MSKGLLLLWLVTELWWLYLTPAASEDTIIGFLGQPVTLPCHYLSWSQSRNSMCWGKGSCPNSKCNAELLRTDGTRIISRKSTKYTLLGKVQFGEVSLTISNTNRGDSGVYCCRIEVPGWFNDVKKNVRLELRRATTTKKPTTTTRPTTTPYVTTTTPELLPTTVMTTSVLPTTTPPQTLATTAFSTAVTTCPSTTPGSFSQETTKGSAFTTESETLPASNHSQRSMMTISTDIAVLRPTGSNPGILPSTSQLTTQKTTLTTSESLQKTTKSHQINSRQTILIIACCVGFVLMVLLFLAFLYFLGRLVPRGRGAAEAATRKQRITETESPYQELQGQRSDVYSDLNTQRPYYKHHLFYWDVWFIYNVCLAKVKGYRSLSTSQTFYDAYISYDTKDASVTDWVINELRYHLEESRDKNVLLCLEERDWDPGLAIIDNLMQSINQSKKTVFVLTKKYAKSWNFKTAFYLALQRLMDENMDVIIFILLEPVLQHSQYLRLRQRICKSSILQWPDNPKAEGLFWQTLRNVVLTENDSRYNNMYVDSIKQY | synergistic killing of H1975 lung adenocarcinoma cells upon EGFR inhibition |
